{"source": "patent US20040235717A1", "about": "“Suppression of androgen receptor transactivation through new pathways to ar and ar coactivators and repressors” (priority 2001, published 2004)", "molecules": {"B1": {"name": "ARf: the interaction domain within AR (aa; 483-651) (protein)", "chain": "YTRPPQGLAGQESDFTAPDVWYPGGMVSRVPYPSPTCVKSEMGPWMDSYSGPYGDMRLETARDHVLPIDYYFPPQKTCLICGDEASGCHYGALTCGSCKVFFKRAAEGKQKYLCASRNDCTIDKFRRKNCPSCRLRKCYEAGMTLGARKLKKLGNLKLQEEGEASSTTS", "modifications": "left off: small tags and cut ends"}, "B2": {"name": "Smad4: candidate tumor suppressor, shared component of Smad signaling (protein)", "chain": "MDNMSITNTPTSNDACLSIVHSLMCHRQGGESETFAKRAIESLVKKLKEKKDELDSLITAITTNGAHPSKCVTIQRTLDGRLQVAGRKGFPHVIYARLWRWPDLHKNELKHVKYCQYAFDLKCDSVCVNPYHYERVVSPGIDLSGLTLQSNAPSSMMVKDEYVHDFEGQPSLSTEGHSIQTIQHPPSNRASTETYSTPALLAPSESNATSTANFPNIPVASTSQPASILGGSHSEGLLQIASGPQPGQQQNGFTGQPATYHHNSTTTWTGSRTAPYTPNLPHHQNGHLQHHPPMPPHPGHYWPVHNELAFQPPISNHPAPEYWCSIAYFEMDVQVGETFKVPSSCPIVTVDGYVDPSGGDRFCLGQLSNVHRTEAIERARLHIGKGVQLECKGEGDVWVRCLSDHAVFVQSYYLDREAGRAPGDAVHKIYPSAYIKVFDLRQCHRQMQQQAATAQAAAAAQAAAVAGNIPGPGSVGGIAPAISLSAAAGIGVDDLRRLCILRMSFVKGWGPDYPRQSIKETPCWIEIHLHRALQLLDEVLHTMPIADPQPLD"}, "B3": {"name": "PTEN-#1: PTEN fragment (aa, 1-107) that does not interact with AR (protein)", "chain": "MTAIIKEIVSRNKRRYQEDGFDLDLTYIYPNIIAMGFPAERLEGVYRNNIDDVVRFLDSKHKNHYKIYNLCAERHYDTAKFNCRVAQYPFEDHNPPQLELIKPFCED", "modifications": "left off: a dimerising Fc or GST"}}, "key": {"AR transactivation [1]": {"test_system": "AR transactivation", "assay": "AR transactivation, MMTV-luc / (ARE)4-luc luciferase reporter assay", "format": "cell-based", "conditions": "LNCaP"}, "[2]": {"test_system": "interaction between AR and PTEN", "assay": "Co-immunoprecipitation of AR and PTEN in CWR22 cells", "format": "cell-based, human", "method": "28. […] (C) The cell lysates from the CWR22 were immunoprecipitated by anti-PTEN antibody, followed by Western blot analysis. […] The cells were harvested for co-immunoprecipitation. Lane 1: 10% input; Lane 2: IP by non-immune IgG; Lane 3: IP by anti-AR antibody; Lane 4: The PTEN protein was depleted from the cell lysates by anti-PTEN antibody before IP by anti-AR antibody; Lane 5: IP by anti-PTEN antibody. (E) CWR22 cells were transfected with vector or Akf for 48 h and the cells were harvested for immunoprecipitation assay.\n314. The immunoprecipitation and Western blotting were performed as previously described (Qiu et al. (1998) Nature 393, 83-5). The cell extracts (1 mg) were immunoprecipitated with the indicated antibody. The immunocomplexes were subjected to 8% SDS-PAGE and immunoblotted with the indicated antibody."}, "Akt": {"test_system": "Akt", "assay": "Akt activity in LNCaP cells, Western blot with phospho-Akt (Ser473) antibody", "format": "cell-based", "conditions": "LNCaP", "method": "18. […] (A) Akt suppressed androgen/AR-induced p21 promoter activity. […] (B) Androgen/AR-induced PC-3(AR)6 apoptosis and p21 protein expression was blocked by Akt PC-3(AR)6 was transfected with pCDNA3, cAkt, or dAkt, as indicated, for 16 h. […] (C) AR-induced p21 protein expression was enhanced by dAkt in LNCaP cells. […] LNCaP stable transfection with dAkt was confirmed by western blot assay using phospho-Akt (Ser473) antibody. […] TPA was then added for another 24 h and cell apoptosis was determined by TUNEL assay. […] IGF-1 was added for another 30 min, followed by 10 nM TPA treatment for another 24 h. The apoptosis was determined by TUNEL assay. The data are means±s.d. from three independent experiments.\n(§1) 31. […] (D) The LNCaP cells were transfected with plasmids as indicated for 16 h, and the medium was changed to 0.1% CDS media for 2 days. The cell apoptosis was determined by TUNEL assay (E) The LNCaP cells were transfected with plasmids as indicated for 16 h, harvested, and the cell extracts were subjected to SDS-PAGE. The Akt activity was determined by Western blotting using phospho(S473)-Akt antibody. (F) The U87MG cells were transfected with plasmids as indicated for 16 h, and the medium was changed 0.1% CDS media for 2 days. The cell apoptosis was determined by TUNEL assay. Data for luciferase activity and apoptosis are means±s.d. from three independent experiments."}, "AR transactivation [3]": {"test_system": "AR transactivation", "assay": "AR transactivation, (ARE)4-luc in CWR22 cells", "format": "cell-based, human", "method": "as §1\n312. […] The cells were lysed and the luciferase activity was detected by the dual luciferase assay according to standard procedures."}, "AR protein levels": {"test_system": "AR protein levels", "assay": "AR protein (Western blot) and AR mRNA (Northern blot) levels", "format": "cell-based", "conditions": "LNCaP; 10 nM DHT"}, "LNCaP cells": {"test_system": "LNCaP cells", "assay": "PTEN-induced apoptosis in LNCaP cells, TUNEL assay", "format": "cell-based"}, "U87MG cells": {"test_system": "U87MG cells", "assay": "PTEN-induced apoptosis in AR-negative U87MG cells, TUNEL assay", "format": "cell-based", "method": "as §1\n311. For the apoptosis assay, the cells were transfected with plasmids for 24 h and grown in 0.1% charcol-stripped serum (CDS) media. The apoptosis was determined 2 days after transfection using the TUNEL assay according to the standard procedures (Oncogene). At least 200 cells were scored for each sample and data are means±s.d. from three independent experiments."}, "AR transactivation [4]": {"test_system": "AR transactivation", "assay": "AR transactivation with Smad3/Smad4, CAT reporters in PC3-AR2, PC-3 and LNCaP cells", "format": "cell-based, human", "conditions": "PC3-AR2, MMTV-CAT", "method": "32. […] LNCaP cell were transfected with Smad3 or Smad4 expression vector instead of PC-3(AR)2 cells in experiments otherwise identical with those in A (B), PC-3(AR)2 cells stably transfected with AR were over-expressed with the indicated amounts of Smad3 or Smad4 or SRC-1. 3 μg of MMTV-CAT was used as a reporter plasmid in all experiments. All values represent the averages±SD of four independent experiments. […] PSA expression level was determined by Northern blotting. The probe was obtained from exon 1 of the PSA gene and labeled with [α-^32P] dCTP. A β-actin probe was used as a control for equivalent mRNA loading. (C, Table 1) The RNA samples from (A) were reverse transcribed to cDNAs and all of the samples were subjected to real-time CR using an ABI Prism 7700 Sequence Detection System (Perkin-Elmer Applied bio systems). PCR was performed using the SYBR Green PCR Core Reagents kit (Perkin-Elmer Applied Bio systems). PSA and β-actin forward, reverse primers concentrations were 2.5 μM. To reduce variability between replicates, PCR premixes which contained all reagents except for total RNA were prepared and aliquoted into 1.5 ml microfuge tubes. Specific PCR amplification products were detected by the fluorescent double-stranded DNA-binding dye SYBR Green core reagent kit. Experiments were performed with triplicates for each data point.\n37. […] (A) PC3-AR2, SW480·C7, and PC-3 cells were transiently co-transfected with either MMTV-CAT, PSA-CAT, 5XARE-CAT, or (TAT)2-CAT (3 μg), in the presence of AR, Smad3, Smad4 or Smad3/Smad4 as indicated. Each CAT activity is presented relative to the transactivation observed in the absence of Smad3. All values represent the mean±SD of three independent experiments.\n333. Human prostate cancer DU145 cells and PC-3 cells were maintained in Dulbecco's Minimum Essential Medium containing penicillin (25 U/ml), streptomycin (25 μg/ml), and 5% fetal calf serum. Transfections were performed using the calcium phosphate precipitation method and cells were harvested after 24 h for the chloramphenicol acetyltransferase (CAT) assay, as described previously (Kang, et al. (1999) J. Biol. Chem. 274, 8570-8576). The CAT activity was visualized and quantitated by STORM 840 (Molecular Dynamics). At least three independent experiments were carried out in each case. The SW480·C7 cells and PC-3(AR)2 cells are the gifts from Dr. Eric J. Stanbridge and Dr. T. J. Brown"}, "PSA mRNA expression": {"test_system": "PSA mRNA expression", "assay": "PSA mRNA expression in LNCaP cells, Northern blot", "format": "cell-based", "conditions": "presence of androgen"}, "AR-Smad3 interaction": {"molecular_target": "T1, AR-Smad3 interaction (Homo sapiens, UniProt P10275)", "T1 construct": "in vitro transcribed/translated [^35S]-labeled full-length AR and GST-Smad3 (2 μg); made in house; host or cells: AR: TNT-coupled reticulocyte lysate (Promega); GST-Smad3: E. coli BL21 (DE3) pLysS", "T1 sequence (P10275 1-920)": "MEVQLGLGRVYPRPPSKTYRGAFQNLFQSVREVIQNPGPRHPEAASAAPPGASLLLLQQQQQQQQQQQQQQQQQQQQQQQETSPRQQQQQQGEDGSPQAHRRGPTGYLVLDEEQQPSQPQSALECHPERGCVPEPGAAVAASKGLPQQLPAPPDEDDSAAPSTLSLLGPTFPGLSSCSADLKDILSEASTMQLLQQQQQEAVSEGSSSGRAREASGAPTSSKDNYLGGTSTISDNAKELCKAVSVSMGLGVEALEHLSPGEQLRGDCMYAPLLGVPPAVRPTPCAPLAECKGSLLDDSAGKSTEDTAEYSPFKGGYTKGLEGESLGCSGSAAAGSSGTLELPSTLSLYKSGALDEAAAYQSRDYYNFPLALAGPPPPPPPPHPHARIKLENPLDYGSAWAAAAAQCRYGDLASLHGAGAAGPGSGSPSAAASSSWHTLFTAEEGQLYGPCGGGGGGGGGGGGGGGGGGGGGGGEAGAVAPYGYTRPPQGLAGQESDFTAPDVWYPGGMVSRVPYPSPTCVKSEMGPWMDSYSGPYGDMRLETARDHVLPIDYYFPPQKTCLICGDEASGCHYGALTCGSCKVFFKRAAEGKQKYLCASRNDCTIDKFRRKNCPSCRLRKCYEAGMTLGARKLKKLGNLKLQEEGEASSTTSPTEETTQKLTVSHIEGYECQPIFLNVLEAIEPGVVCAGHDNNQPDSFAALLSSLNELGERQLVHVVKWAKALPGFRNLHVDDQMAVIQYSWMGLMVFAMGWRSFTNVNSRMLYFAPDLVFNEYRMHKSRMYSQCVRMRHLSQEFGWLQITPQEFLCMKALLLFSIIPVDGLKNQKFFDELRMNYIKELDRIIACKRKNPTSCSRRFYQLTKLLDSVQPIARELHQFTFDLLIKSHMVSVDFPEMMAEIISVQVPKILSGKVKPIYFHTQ", "assay": "GST-Smad3 pull-down of AR with added Smad4", "format": "binding", "conditions": "GST-Smad3, [35S]-AR, purified Smad4 added", "method": "34. […] Complex bound to GST columns was subjected to SDS-PAGE and autoradiography. […] (C) The indicated amounts of purified Smad4 proteins were added to fixed volumes of in vitro transcribed/translated [^35S]-labeled full-length AR and GST-Smad3 (2 μg) to test for interaction. Bands were detected using a phosphoimager. A representative blot of three independent experiments is shown.\n335. Fusion proteins of GST-Smad3 and GST-AR, and GST protein alone were obtained by transforming expressing plasmids into BL21 (DE3) pLysS strain competent cells followed with 1 mM IPTG induction. GST-fusion proteins then were purified by Glutathione-Sepharose™ 4B (Pharmacia). The wtAR and deletion mutant AR (mtAR) proteins labeled with [^35S] were generated in vitro using the TNT-coupled reticulocyte lysate system (Promega). […] The bound proteins were separated on an 8% SDS-polyacrylamide gel and visualized by using autoradiography."}}}
{"molecule": "B1", "values": [{"measurement": "Effect on PTEN suppression of AR transactivation", "setting": "AR transactivation [1]", "value": "dramatically reduce"}, {"measurement": "Interaction between AR and PTEN", "setting": "[2]", "value": "disrupted the interaction between AR and PTEN"}, {"measurement": "Effect on PTEN-mediated inhibition of Akt activity", "setting": "Akt", "value": "little influence"}, {"measurement": "Effect on PTEN suppression of AR transactivation", "setting": "AR transactivation [3]", "value": "significantly reduce PTEN suppressive effect on AR transactivation"}, {"measurement": "Effect on PTEN-mediated promotion of AR degradation", "setting": "AR protein levels", "value": "dramatically reduce"}, {"measurement": "Effect on PTEN-induced apoptosis", "setting": "LNCaP cells", "value": "markedly reduced PTEN-induced apoptosis"}, {"measurement": "Effect on PTEN-induced apoptosis", "setting": "U87MG cells", "value": "only marginal effects"}]}
{"molecule": "B2", "values": [{"measurement": "Effect on Smad3-enhanced AR transactivation", "setting": "AR transactivation [4]", "value": "significantly repressed"}, {"measurement": "Effect on androgen-activated AR transactivation", "setting": "AR transactivation [4]; 10^−8 M DHT", "value": "slightly suppressed"}, {"measurement": "Effect on androgen-induced PSA mRNA expression", "setting": "PSA mRNA expression", "value": "slight suppression of PSA mRNA expression"}, {"measurement": "AR-Smad3 interaction", "setting": "AR-Smad3 interaction", "value": "decrease this AR-Smad3 interaction in a dose-dependent manner"}]}
{"molecule": "B3", "values": [{"measurement": "Effect on PTEN functions (AR degradation, AR transactivation)", "setting": "AR transactivation [1]", "value": "only marginal effect"}]}
